We go through 4 molecules from patent US20220380734A1, “SYSTEMS AND METHODS FOR LUNG CELL EXPANSION AND DIFFERENTIATION” (DUKE UNIVERSITY, priority 2019, published 2022).

The subject of assay [1] is AEC2s. The experiment in a line: AEC2/AEC1 marker immunostaining of mouse organoids (maintenance and differentiation).
Protocol: Serum free medium contained 10 μM SB431542 (Abcam, Cambridge, UK), 3 μM CHIR99021 (Tocris, Bristol, UK), 1 μM BIRB796 (Tocris, Bristol, UK), 5 μg/ml Heparin (Sigma-Aldrich, St. Louis, Mo.), 50 ng/ml human EGF (Gibco), 10 ng/ml mouse FGF10 (R&D systems. Minneapolis, Minn.), 10 μM Y27632 (Selleckchem, Houston, Tex.), Insulin-Transferrin-Selenium (Thermo, Waltham, Mass.), 1% Glutamax (Thermo, Waltham, Mass.), 2% B27 (Thermo, Waltham, Mass.), 1% N2 (Thermo, Waltham, Mass.), 15 mM HEPES (Thermo, Waltham, Mass.), 1.25 mM N-acetylcysteine (Sigma-Aldrich, St. Louis, Mo.) and 1% Anti-Anti (Thermo, Waltham, Mass.) in Advanced DMEM/F12 (Thermo, Waltham, Mass.). For Alveo-Expansion medium, 10 ng/ml mouse IL-1b (BioLegend, San Diego, Calif.), 10 ng/ml mouse TNFa (BioLegend, San Diego, Calif.) were added into serum free medium. For Alveo-Maintenance medium, 10 ng/ml mouse Noggin (Peprotech, Rocky Hill, N.J.) and 1 μM DMH-1 (Tocris, Bristol, UK.) were added into Alveo-Expansion medium. Alveo-Differentiation medium contained ITS, Glutamax, 5 μg/ml Heparin, 5 ng/ml human EGF, 1 μg/ml mouse FGF10, 10% fetal bovine serum and 1% Anti-Anti in Advanced DMEM/F12.
For differentiation, mouse alveolospheres were cultured in AMM medium for 10 days were switched to AT2-differentiation medium followed by culture for an additional 7 days, except where stated otherwise. […]
The next assay has as its system human alveolospheres. The experiment in a line: Human alveolosphere culture with human IL-1β. The following applies: three donors, hIL-1β removed at day 7, cultured additional 7-15 days. The assay is classed as cell-based. As for the experimental part:
For human alveolosphere culture, HTII-280^+ human AT2s (1-3×10^3) were resuspended in scrum free medium and mixed with an equal amount of Matrigel and plated in 6 well plates. For detailed mouse and human serum-free, feeder-free (SFFF) media composition, see Table 1 and Table 2.
The impact of human IL-1β was also tested in human alveolosphere culture. Human IL-1β was removed from medium containing human alveolospheres from three individual donors at day 7 and cultured for an additional 7-15 days (FIG. 7A).

The test system of assay [2] is AEC2s. The assay is described as follows: Feeder-free (no fibroblasts) mouse AEC2 organoid culture in serum free medium: CFE and organoid size. The format is cell-based.

As to “IL6: interleukin-6, 20 ng/mL supplement of serum-free differentiation medium”, the “expression of AEC1 markers including AGER” value in the assay with AEC2s [1] (mouse AEC2s, 10 days maintenance medium, then serum-free differentiation medium + IL6 20 ng/mL for 10 days) is listed as “strong expression”.
For the molecule “Human IL-1β: human interleukin-1β tested in human alveolosphere culture”, the “organoid numbers and the size (growth rate)” value in the assay with human alveolospheres was “significantly enhanced”.

B1: IL1β: mouse interleukin-1β, cytokine added to serum free medium (protein, UniProt P10749 118-269, looked up)
Interleukin-1 beta: VPIRQLHYRLRDEQQKSLVLSDPYELKALHLNGQNINQQVIFSMSFVQGEPSNDKIPVALGLKGKNLYLSCVMKDGTPTLQLESVDPKQYPKKKMEKRFVFNKIEVKSKVEFESAEFPNWYISTSQAEHKPVFLGNNSGQDIIDFTMESVSS
Take B1: the CFE in the assay on AEC2s [2] (IL1β removed from culture media on day-3, n=2) was 19.85%; in the assay with AEC2s [2] (IL1β removed from culture media on day-5, n=3, average±SEM), 20.35%±0.30%; in the assay on AEC2s [2] (IL1β removed from culture media on day-7, n=3, average±SEM), 19.33%±0.84%; in the assay with AEC2s [2] (continuous IL1β supplementation, n=3, average±SEM), 20.91%±1.61%.

B2: BMP4: BMP4 ligand (protein, UniProt P12644 293-408, looked up)
Bone morphogenetic protein 4: SPKHHSQRARKKNKNCRRHSLYVDFSDVGWNDWIVAPPGYQAFYCHGDCPFPLADHLNSTNHAIVQTLVNSVNSSIPKACCVPTELSAISMLYLDEYDKVVLKNYQEMVVEGCGCR
For the molecule B2, the “complete differentiation of AEC2 to AEC1 cells” value in the assay with AEC2s [1] (organoids treated with BMP4 ligand) is given as “not observed”.
